Test: yeast display, Sf9 membrane polyspecificity reagent, FACS + sequencing; frameworks hold sequencing errors
Procedure, shortened: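 Nanobodies from a synthetic yeast display library (Saccharomyces cerevisiae BJ5465), induced 36–48 hours with galactose, were stained 1 hour at 4 °C with 10% biotinylated, detergent-solubilized Sf9 membrane reagent, enriched on streptavidin microbeads, then FACS-sorted. Anti-HA (expression) and streptavidin (reagent binding) fluorescence set low and high (top ~1%) gates. Polyreactivity labels come from the gate of origin. Genes were colony-PCR amplified, MiSeq 2 × 250 sequenced and filtered by CDR length.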

| Sequence | polyreactivity (PSR sort gate) |
| --- | --- |
| QVQLVESGGGLVQAGGSLRLSCAASGYIVDRNAMGWYRQAPGKERELVAAITKRGGITYYADSVKGRFTISRDNAKNTVYLQMNSLKPEDTAVYYCNALARSSRYDYWGQGTQVTVSS | low polyreactivity |
| QVQLVESGGGLVQAGGSLRLSCAASGYIYQRNAMGWYRQAPGKERELVARINYRGGSFYADSVKGRCTISRDNAKNTGYLQMNSLKPEDTAVYYCAARTSGDMYSWGQGTQVTVSS | high polyreactivity |
| QVQLVESGGGLVQAGGSLRLSCAASGYNFDDNAMGWYRQAPGKERELVATNYADSVKGRFTISRDNAKNTVYLQMKSLKPEDTAVYYCAKDVWQTYTDLDHWGQGTQVTVSS | low polyreactivity |
| QVQLVESGGGLVQAGGSLRLSCAASGYNFNYAMGWYRQAPGKERELVAAISRRGGSTYYADSVKGRFTISRDNAKNTVYLQMNSLTPEDTAVYYCAARLPGYFGIGDYWGQGTQVTVSS | high polyreactivity |
| QVQLVESGGGLVQAGGSLRLSCAASGYPFGYYGKGWYRQAPGKERELVAAISRSGGGSTYYADSVKGRFTISRENAKYTVYLQINSLKPEDTAVYYCNVSPGVWRSIPLYYNLRYGYWGQGTQVTVSS | low polyreactivity |
| QVQLVESGGGLVQAGGSLRLSCAASGYTDYAMGWYRQAPGKERELVATITSGDNTNYADSVKGRFTISRDNAKNTVYLQMNSPQPEDTAVYYCAADRIGRYRPYIGYWGQGTQVTVSS | low polyreactivity |
| QVQLVESGGGLVQAGGSLRLSCAASGYTFAIYAMGWYRQAPGKERELVAAITWNGGSTYYADSVKGRFTISRDNAKNTVFLQMNSLKPEDTAVYYCAADYWSGGYDYWGQGTQVTVSS | low polyreactivity |
| QVQLVESGGGLVQAGGSLRLSCAASGYTFAPYVMGWYRPAPGKERELVARISNNGGSTYYADSVKGRFTISRDNAKNTVYLQMNSLKPEDTAVYYCAADVGLIYFRYYYWGQGTQVTVSS | low polyreactivity |
| QVQLVESGGGLVQAGGSLRLSCAASGYTFASNAMGWYRQAPGKERELVAAITRGGSTNYADSVKGRFTISRDNAKNTVYLQMNSLKPEDTAVYYCAAPRYRHTRKGGYWGQGTQVTVSS | low polyreactivity |
| QVQLVESGGGLVQAGGSLRLSCAASGYTFASYTLGWYRQAPGKERELVATISRGGGRTYYADSVKGRFTISRDNAKNTVYLQMNSLKPEDTAVYYCAARWWYYNGGRDYWGQGTQVTVSS | high polyreactivity |
| QVQLVESGGGLVQAGGSLRLSCAASGYTFAYNAMGWYRQAPGKERELVAVITWSGDSTYYADSVKGRFTISRDNAKNTVYLQMNSLKPEDTAVYYCAAQVDRWKGREHDYWGQGTQVTVSS | low polyreactivity |
| QVQLVESGGGLVQAGGSLRLSCAASGYTFAYNGMGWYRQAPGKERELVAVIDWSTGDTYYADSVKGRFTISRDNAKNTVYLQMNSLKPEDTAVYYCAADFFEGLYVFWGQGTQVTVSW | low polyreactivity |
| QVQLVESGGGLVQAGGSLRLSCAASGYTFDLYAMGWYRQAPGKERELVADISSGGSTNYADSVKGRFTISRDNAKNTVYLQMNSLKPEDTAVYYCAVDADRTLFGQYYVSEYGGGYWGQGTQVTVSS | low polyreactivity |
| QVQLVESGGGLVQAGGSLRLSCAASGYTFGAYAMGWNRQAPGKERELVAAITVRAGRTYYADSVKGRFTISRDNAKNSVYLQMNSLKPEDTSVYYCARRNPLGGNEHDYWGHGTQVTVSS | low polyreactivity |
| QVQLVESGGGLVQAGGSLRLSCAASGYTFGINAMGWYRQAPGKERELVAAITTGGSTNYADSVKGRFTISRDNAKNSVYLQMNSLKPEDTAVYYCNASWDVWNANYWYPGAYYYWGQGTQVTVSS | low polyreactivity |
| QVQLVESGGGLVQAGGSLRLSCAASGYTFGKYAMGWYRQAPGKERELVAGISSRGGSTYYADSVKGRFTISRDNAKNTVYLQMNSLKPEDTAVYYCAAVAYTGGPRKLGFNYWGQGTQVSVSS | high polyreactivity |
| QVQLVESGGGLVQAGGSLRLSCAASGYTFGKYVMGWYRQAPGKERELVAAISKSGSGTYYADSVKGRFTISRDNAKNTVYFQMNSLKPEDTAVYYFAARGYGFPELDYWGQGTQVTVSS | high polyreactivity |
| QVQLVESGGGLVQAGGSLRLSCAASGYTFGSNAMGWYRQAPGKERELVAAISNGGSTNYADSVKGRFTISRDNAKNTVYLQMTSLKPEDTAVYYCAAASRWHIGYWRYDYWGQGTQVTVSS | low polyreactivity |
| QVQLVESGGGLVQAGGSLRLSCAASGYTFGSYAMGWYRQAPGKERELVAAITRRGGSTYYADSVKGRFTISRDNAKNTVYLQMTSLKPEDTEVYYCAKRSRDYVSSFLTSHANDYWGQGTQVTVSS | high polyreactivity |
| QVQLVESGGGLVQAGGSLRLSCAASGYTFGYYAMGWYRQAPGKERELVAAISSGGSTYYADSVKGRFTISRDNAKNTVYLQMNSLKPEDTAVYYCAVVRYLGDRGMNYWGQGTQVTVSS | low polyreactivity |
| QVQLVESGGGLVQAGGSLRLSCAASGYTFIDNAMGWYRQAPGKERELVAAISWSVDRTYYADSVKGRFTISRDNAKNTVYLQMNSLKPEDTAVYYCAAVHWWSSSLRMYYWGQGTQVTVSS | low polyreactivity |

| Sequence | polyreactivity (PSR sort gate) |
| --- | --- |
| QVQLVESGGGLVQAGGSLRLSCAASGYTFIVNAMGWYRQAPGKERELVAAITSGGGTYYADSVKGRFTISRDNAKNTVYLQMNCLKPEDTAVYYCAARSGYRYVESDYWGQGTQVTVSS | high polyreactivity |
| QVQLVESGGGLVQAGGSLRLSCAASGYTFKAYAMGWNIQAPGKERELVAAISWSGARTYYAYSVKGRFTISRDNAKNTVYLEMNRLKPEYTAVYYCAASNAVYAGRSYRDEYWGQGTQVTVSS | high polyreactivity |
| QVQLVESGGGLVQAGGSLRLSCAASGYTFKTNDMGWSRQAPGKEREFVAAIDSGGNTYYADSVKGRFTISRDNAKNTVYLQMNSLKPEDTAVYYCAAYRDYQYDYWGQGTQVTVSS | low polyreactivity |
| QVQLVESGGGLVQAGGSLRLSCAASGYTFLIYAMGGYRQAPGKERELVASISRSGGSTYYADSVKGRFTISRDNAKKTVYLQMNSLKPEDTAVYYCAARNPYRYFYNYEYWGQGTQVTVSS | low polyreactivity |
| QVQLVESGGGLVQAGGSLRLSCAASGYTFLKYAMGWYRQAPGKERELVAAISGRGGRTYYADSVKGRFTISRDNAKNTVYLQMNSLKPEDTAVYYCNAVRNSPDDYWGQGTQVTVSS | high polyreactivity |
| QVQLVESGGGLVQAGGSLRLSCAASGYTFPLYAMGWYRQAAGKERELVADINIGGASTYYADSVKGRFTISRHNAKNTVYLQMNSLKPEESAVYYCAKEYYDGYFPTFDYDYWGQGTQVTVSS | low polyreactivity |
| QVQLVESGGGLVQAGGSLRLSCAASGYTFPRYAMGWYRQAPGKERELVATINWTGSNTYADSVKGRFTISRDNAKNTVYLQMNSLKPEDTAVYYCAKDSWNVRSGRYNYWGQGTQVTVSS | low polyreactivity |
| QVQLVESGGGLVQAGGSLRLSCAASGYTFPVYAKGWYRQASRKERELVATSTSGGSTNYADSVKGRFTISRDNAKNTVYFQMNSLKPEDTAVYYCAADRALSISLYPIASFYYWGQGTQVTVSS | low polyreactivity |
| QVQLVESGGGLVQAGGSLRLSCAASGYTFPYYTMGWYRQAPGKERELVATITRRGDSTYYADSVKGRFTLSRDNAKNTVYLQMNSLKPEDTAVYYCNTASYGRHQFRKSSKMDYWGQGTQVTVSS | high polyreactivity |
| QVQLVESGGGLVQAGGSLRLSCAASGYTFQYNSMGWYRQAHGKERELVATISNRGTSTYYADSVKGRFTISRDNAKKTVYLQMNSLKPEDTAVYYCAKSRWSLYSSGVWSRRHFYYWGHGTQVTVSS | high polyreactivity |
| QVQLVESGGGLVQAGGSLRLSCAASGYTFRFNAMGWYRQAPGKEREFVAAIDFGGAGTYYADSVKGRFTISRDNATNTVYVQMNSLKPEDTAVYYCNARDGVTTEFDYWGQGTQVTVSS | low polyreactivity |
| QVQLVESGGGLVQAGGSLRLSCAASGYTFRGYAMGWYRQAPGKERELVAAISWSGGRTYYADSVKVRFTISRDNAKNTVYLQMNSLKPEDTAVYYCDAETHVGWPAKFDYWGQGTQVTVSS | high polyreactivity |
| QVQLVESGGGLVQAGGSLRLSCAASGYTFRYYAMGWYRQAHGKERELVAAITSSTSSTYYADSVKGRFTISRDNAKNTVYLQMNSLKPEDTAVYYCNRVWSTSMDYWGEGTQVTVSS | high polyreactivity |
| QVQLVESGGGLVQAGGSLRLSCAASGYTFRYYAMGWYRQAHGKERELVDDINSGDITNYADSVKGRFTISRDNAKYTVYLQMNSLKTEDTAVYYCARRTFSLYDYWGQGTQVTVSS | low polyreactivity |
| QVQLVESGGGLVQAGGSLRLSCAASGYTFRYYAMGWYRQAPGKDRELVAVISSGGSTKYADSVKGRFTNSRDNAKNTVYLQMNSLKPEDTAVYYCAARYRSLYNYWGQGTQVTVSS | high polyreactivity |
| QVQLVESGGGLVQAGGSLRLSCAASGYTFRYYAMGWYRQAPGKERELVAAITWSGGSTYYADSVKGRFTISRDNAKNTVYLQMNSLKPEDTAVYYCATDSARVGNFPDPQFDYWGQGTQVTVSS | low polyreactivity |
| QVQLVESGGGLVQAGGSLRLSCAASGYTFSDNAMGWYRQAPGKERELVAAITSGVSTYYADSVKGRFTISRDNAKNTVYLQMNSLKPEDTAVYYCAKDVAVYADLYQGAPYGYWGQGTQVTVSS | low polyreactivity |
| QVQLVESGGGLVQAGGSLRLSCAASGYTFSFYAMGWYIQAPGKERELVATISWRGGSTYYADSVKGRFTISRDNAKNTVYLQMNSLKPEDTAVYYCNIVDKTGSKMDYWGQGTQVTVSS | high polyreactivity |
| QVQLVESGGGLVQAGGSLRLSCAASGYTFSLNAMGWYRQAPGKERELVAAIRGGGSTNYADSVKGRFTISRDNAKKTVYLQMNSLKPEDTAVYYCAASSYNGHVYWGQGTQVTVSS | low polyreactivity |
| QVQLVESGGGLVQAGGSLRLSCAASGYTFSRNAMGWYRPAPGKERELVAAITGSGGSTYYADSVKGRFTISRDNAKNTVYLQMNSLKPEDTAVYYCASKYYGRSFYYGYDYWGQGTQVTVSS | low polyreactivity |

From the nanobody polyreactivity screen of Harvey et al. (2022)
